The term Kd denotes the free concentration of one partner at which half of the binding sites on the other are occupied at equilibrium, for simple one-to-one binding. A lower Kd goes with tighter binding. Broadly, the koff is a measure of how fast the partners let go of each other. A lower koff goes with slow dissociation. The term kon denotes the second-order rate constant of association. A lower kon goes with slow association.

Assay [1] addresses human PCSK9 (proprotein convertase subtilisin kexin type 9), mature form (human) (UniProt Q8NBP7). Description: KinExA solution equilibrium, PCSK9-coated beads. On the technique in general: Kinetic exclusion samples the free partner from a solution-phase mixture.
For assay [2] the target is unchanged. Description: BIAcore SPR, pH 6.0.
For assay [3] the target is unchanged. Description: BIAcore SPR, pH 7.4.
The target is the same in assay [4]. Description: BIAcore SPR, antibody amine-coupled to CM5 chip, PCSK9 as analyte, pH 7.4. A general note: In SPR one partner is held on a chip, and binding of the other changes the refractive index at the surface.
Assay [5] has the same target. Description: BIAcore solution equilibrium binding assay, free PCSK9 read on immobilized 21B12.

B1: 16F12, anti-PCSK9 huIgG4 (antibody, V domains shown)
VH: QVHLVESGGGVVQPGRSLRLSCAASGFTFNSFGMHWVRQAPGKGLEWVALIWSDGSDEYYADSVKGRFTISRDNSKNTLYLQMNSLRAEDTAVYYCARAIAALYYYYGMDVWGQGTTVTVSS
VL: QSVLTQPPSVSAAPGQKVTISCSGSSSNIGNNFVSWYQQLPGTAPKLLIYDYNKRPSGIPDRFSGSKSGTSATLGITGLQTGDEADYYCGTWDSSLSAYVFGTGTRVTVLQ
On to B1, for which the Kd is 0.015 nM in assay [1], 0.029 nM in assay [2], 0.47 nM in assay [3] and 0.47 nM in assay [4]. Further, the koff in assay [2] came to 7.01e-05 s⁻¹; in assay [3] it was 4.98e-05 s⁻¹. Moreover, the kon is 2.39e+06 M⁻¹ s⁻¹ in assay [2] and 106000 M⁻¹ s⁻¹ in assay [3].

B2: 21B12, anti-PCSK9 huIgG4 (antibody, V domains shown)
VH: QVQLVQSGAEVKKPGASVKVSCKASGYTLTSYGISWVRQAPGQGLEWMGWVSFYNGNTNYAQKLQGRGTMTTDPSTSTAYMELRSLRSDDTAVYYCARGYGMDVWGQGTTVTVSS
VL: QSALTQPASVSGSPGQSITISCTGTSSDVGGYNSVSWYQQHPGKAPKLMIYEVSNRPSGVSNRFSGSKSGNTASLTISGLQAEDEADYYCNSYTSTSMVFGGGTKLTVLQ
In the case of B2, the Kd in assay [2] came out at 0.0073 nM; in assay [5] it was 0.015 nM; in assay [3] it was 0.19 nM; in assay [4] it was 0.19 nM. Moreover, the results for the koff in assay [2] and in assay [3] were 1.68e-05 s⁻¹ and 6.63e-06 s⁻¹, respectively. Moreover, the association rate constant (kon) in assay [2] amounted to 2.29e+06 M⁻¹ s⁻¹; in assay [3], 34900 M⁻¹ s⁻¹.

(Values after patent US20120020975A1.)
